Test results taken from the DeepSol protein solubility set.

Assay: soluble on expression in E. coli; label from the status in PepcDB or PDB records

Sequence | soluble on expression in E. coli
MAHHHHHHMSKAVQFSVLKQGSLEPGSWTQRVLTIDTKSDTVTISRKHHPEHVFYHSLEVAHVQMWPRYKASEISGHFNSLKAKMTLRIFGKQVPVPKMSVEAVTTADVAEMIRVPSVPSSISLDASLNIERPPVAAATLSQKQKERHPATATSANDDLCDSWMIRFTSIDSYELAVMLLRNMRNTEGKRKRLFGDHVLQDLERVQKAWAEETTGAKSIGGALRSGS | soluble
MGSDKIHHHHHHMNKVLNKESAPAYRLTPEWELYTSVVTTSLNNSFYEQEEERIERVRTLIGKCNPLFVAQLAAYARETMNLRSIPLVMAVELARIHQGDNLVKRVTARTVRRADEITELLACYQQANRRTGTKKLNRLSKQLQAGLQDAFNTFDAYQFAKYNRSAEVCLKDALFLVHPKAKDERQQEIFNGIVNDNLPVPYTWETELSALGQRTFATEEERRKAFRAKWEELIDSGKLGYMALLRNLRNILEAEVSADHILTVGKRLSSEKAVENSRQLPFRFLAAYRELSKTPSLYATMLMTALERAVQVSARNITGFDESTRVLIACDVSGSMQCPVSAKSKVLYYDIGLLLGMLLKSRCKQVMTGIFGDRWKIINLPDTGILSNVDAFYKREGEVGYSTNGYLVIKDLIDRKAQMDKIMMFTDCQLWNSHSDLQITDLWRKYKKICPAAKLYLFDLSGYGNTPLDITRDDVFLIAGWSDKIFDILSAIDKGNDALQEIKKIVV | not soluble
MGSDKIHHHHHHMINSYISQQIERNFPYKPTDDQFLALHTLTEFLLSEEPDSLLLMKGYAGTGKTSLVGALVKTLNELKQKTFLLAPTGRAAKVFSGYAGQKAYTIHKKIYRQRAFSNEPTGFMPADNLHKDTLFIVDEASMIANEGLDSFVFGSGRLLDDLIQYVYSGENCRLILMGDVAQLPPVMQTESPALNPEILRGYNLQVWEIALTQVVRQSEDSGILFNATRLRDALRNHTVEIFPKLQLKGFSDFTKVNGDELIEEISSAYSRDGMEETMIISRSNKRATIYNNGIRNRILYREEELSSGDRLMVAKNNYYWTANCKEMDFIANGEIIQVMRVRRVTEMYGFRFADITARFQDYDLEIDLKILLDTLQTDSPALPKELNDKLFYTILEDYEDIPTKAGKMKKMKVDPHYNVVQVKYAYAVTCHKAQGGQWMNVFLDIGYITEEMLGEDFYRWLYTAFTRATHHLYLVNLPDEFVE | not soluble
MGSDKIHHHHHHMVTHWLPDLSTAEGPLYIRIADRAEADIKTGRLSSGAKLPPQRDLAFDLKVTIGTITRAYALLRERGLVTGEVGRGTYVQSSLAESETDIHRDPVTLTYGGTRTLSPPPGKLRFDTTAAIDVGQADIIGRLMTDIARDQPDEIASYTRTLLPDWLEAGRRWLSNGDWSPEAANIVPQMGVHAGVNAVIAAISGTGDRIVCEHLTYSQIARSASLMGRQIALVDSDHDGIMPEDFERVCAREHPKAAFIMSSGQNPTLSCLPLSRRLEIIDIARRYNVWLIEDYIYGALVDDGIPLLAQLAPDRTFLLNSLSKSVAAGVRGGWVACPDHMSQRVRVTQKMVCGGLPFLLAELSARLVLSGAADDIRGRVLEELSAREQIVRQLFEGYEFRSHPRLPYFWLKLPEPWLSGTFKQAALDQGVLIDDEDEFKPARSSRVFHHIRAGFSEGRDRSIAEGGLITLRRILDQIPVGSNAVM | not soluble
MSQEIRQNEKISYRIEGPFFIIHLINPDNLNALEGEDYIYLGELLELADRNRDVYFTIIQSSGRFFSSGADFKGIAKAQGDDTNKYPSETSKWVSNFVARNVYVTDAFIKHSKVLICCLNGPAIGLSAALVALCDIVYSINDKVYLLYPFANLGLITEGGTTVSLPLKFGTNTTYECLMFNKPFKYDIMCENGFISKNFNMPSSNAEAFNAKVLEELREKVKGLYLPSCLGMKKLLKSNHIDAFNKANSVEVNESLKYWVDGEPLKRFRQLGSKQRKHRL | soluble
KYIMHQTTPNYTVTLLAALLPWQFFQGAVQGSTTSIISNSNLIKKIYFPRQIMPLSI | not soluble
MRGSVAALLLAAGRSIRMGRCKQLLPLGNTTVLGRCLDTLRRGGVGEIAVVVSADGEQVARAAAGHGVRVVVNPDREGDMASSVRAGRDAFGSAVGGVIVSLCDQPLVAAGTVARLRDRHATEPGRIIIPTHGGRRGHPLLFPLPVLAELEDGLTLRDLVVCDPARVCCVAVADPGILIDMDTPEDYRHVCRLMAPQEGLSLRLEHHHHHH | not soluble
MMHYDGMYYINEEEVRSNLTMKDTIDAIREAFEEYRAGRASSNTRVRTFSEGSVLNTMPASMEKYHILGHKTYSASRNGARFVVTLFDSRNNDLIAIVEANRLGQMRTGAVTAYATSILHPHVENFTIIGSGFQAETQLEGMITVSHPQSIRVYSRNYDHAKDFASRMSKQFGVDIRPVDNAEAALSDADTVSSITNSTSPVILRKYLGDEYHVNLAGSNYMNRREAEYEVLHDADLVVTEHYDQSMVESAEISEYVKFGGKPVELREIAGRYGEFSGLRRTVFKSMGIGLEDIATAYRVLRNLGIA | soluble
MLLAFKAKIALAALAGFVTPLAVTPLVIDHGDAALDGQQAMVEIAPGAMDYRLPGEFTRDGRQIEAPRTKLQFDRPLSIMLHQVSAADYQRCVDDGACHPMPAATAVRADRPAVQVSWQDATTYADWLSRKTGAHYRLPTDAEWAFAAGSKFKDDGLALDSDDPSVRWIARYERESDRDNLSAALRSFGGFGANERGLLDLSGNVWEWTTTCFDRSAIDAAGRPQAQTANCGVRVAEGLHRAYVSDFIRDAKAGGCSAGLPPIHLGFRLVREPAAPLARLRGQLDRVVTAAGILEHHHHHH | not soluble
MKFAVIVFPGSNCDVDMFHAIKDELGEEVDYVWHDTENLDEYDAILLPGGFSYGDYLRCGAISRFANAMKAVQKAAEQGKPILGVCNGFQILVESGLLPGALIRNENLKFMCRTVQLRVENNETMFTSQYEKDEIINIPIAHGEGNYYCDEATLKQLEENNQIAFRYVENPNGSVSDIAGIVNEKGNVLGMMPHPERAVDELLGGAEGLKVFQSILKQWRETYVVNA | not soluble
MGSDKIHHHHHHMNQAMDTKQIAPFTLALPEGEALPLVCDSPHSGTFYPADFGAVVAPERLRGGEDTHVDALWEAVPRVGGTLLAATFPRVYIDPNRMLDDIDPAQLEGPWPTPLAPGEKTRLGYGLIWSNVDAATPIYDRKLTVAEVQRRINRYYRPYHAALTEAVEGAYQRFGAVWHLNLHSMPNNAYERLKIQSPRPLADFVLGDRDGTTCEPGLVDLVERELREKGYTVARNDPYKGVQLIAQIGRPAERRNSLQIEIRRPLYMEEGTRERNEGFATLQRDLTLLTLRIAEYVRRGV | not soluble
MSLTRATKGFLSKSLPKASEATPGSQSSDYIPLVSLQLASGAFLLNEAFCTTIQIPMEKLKWTSPFSCLRMSLVTRRQDLKTQSPQDCTSLSSSPPSCDGISLKSEESSDQESNAMLEHMGKLWATVVALAWLEHSSANYIIEWELVAAKASSWVEKQKVPEGRTLSTLKNTARQLFVLLRHWDEKLEFNMLCYNPNYVEGHHHHHH | not soluble
MAQKSALIILAAEGAEEMEVIITGDVLARGEIRVVYAGLDGAEPVKCARGAHIVPDVKLEDVETEKFDIVILPGGQPGSNTLAESLLVRDVLKSQVESGGLIGAICAAPIALLSHGVKAELVTSHPSVKEKLEKGGYKYSEDRVVVSGKIITSRGPGTAFEFALKIVELLEGKDKATSLIAPMLLKL | not soluble
SVTGIGSGFSELDEYTAGFQPSDMIIIAARPSAGKTAFALALARNAAVNFNTPVLFFSLEMAEIQLALRLMCAEAYVESQLVRRGQISPEMMNKIINSMDALADAKLFIDDTPGISIMELTAKTRRMKQEHGIGMVVVDYLQLVTPVRDGRSNREQEIAQISRSLKALAKELNIPVIALAQLNRSVEQRSGDRRPQLSDL | not soluble
MSLKIYFLPMLLSLFFLGACDKNDEIIPEDADENFITSVVMTVDGKSYTADITDNTVTITVPYTVSLNNAEVEFKYTTSATIIPDPETVTDWDNERTFRVTSYNGDAREYTYKVVKSEIESDGDVELKTTEEVASFAATKTTVVKGNLIIGSDAEEAEKITDISALASLKEVTGNIVIRNSYNGADLTGLDNIVSAGGLQVGSTDVASKATELHMISMKALETLSGDISVYNDQVTYVLFEKLATIEGSVMFNASSLQSFEFPVLTTVGQDLNLQGLNEENTAAGSIASLEIPELTSVGGVLSVNNLAKLTSMSFLKLKETGGLDFHTVPVMLETINLPEIETVNGSIIMEANMEAPPTGSFVPQRNDVLQAFGGMDKLTTIKGQIKIKNFTALKQLPDWSKITTLGSITLDYLEDVSGTLLLPNARFETFGETAPQIEIINKVQLSKIETAEDLSNVNFVITSLTNNKFPEITFKNIKDFTCKPTTNNTDYTISTIQHVYGNLNVTGQMRSNAKFPDLEIIDGYGYIQIPMFASITMPVLKEVGGQFYLSGNFTSCNLPLLSKVCCSASPVYYKEGEGSLAISLQSKSLDIPELLHVGGEGLFVNKATGITCDKLQTIDGTLQIKSATSLSQETLSMEKLETLHGVVFDGLTKFTDYTFFGKFIENGMITGESWSVTKCGYNPTFQNMKDKQYTEGHHHHHH | soluble
MRAIDLNSDLGESFGAWSMGDDAAMLDIVTSANVACGFHAGDPAGILRTLKAAAAKNVTIGAHVSYPDKVGFGRRNMDVASDELTADVIYQIGSLQGLAKAAGTSVRYVKPHGALYNTIAHDRRQAMAVIEAIRAIDPALVLVALAGSTLIELARSEGLQCIAEAFADRAYTPQGTLVSRREPGAVLHDPELVAQRMLRLVQSGSIEAIDGSLVRIEADSICVHGDSPAAVEMARELRRVLEQASTSLQPFAGKRSLEHHHHHH | not soluble
MGHHHHHHSHMAGWIQAQQLQGDALRQMQVLYGQHFPIEVRHYLAQWIESQPWDAIDLDNPQDRAQATQLLEGLVQELQKKAEHQVGEDGFLLKIKLGHYATQLQKTYDRCPLELVRCIRHILYNEQRLVREANNCSSP | not soluble
MSEKETPSPVLDVKKEKNEETGIDEEKSSEDDCSKRSKVKSNPSKFSVNSILSPLESLVRVQQQLLKMAASKSGTPGTNAGVPGAFPYGPGRLPGNYFAGPFPGYSGAQPNWYNGNDPRFAAAAALLPCSIDPVRSAINHQFSMSSMSQRRKRRVLFSQAQVYELERRFKQAKYLTAPEREQLANSIRLTPTQVKIWFQNHRYKCKRQEKEKAMSGLGHSEDGSSPPPDNDDDDDKYSIEMDDKDDEEEEESEKPVLKPSGVFGLPYPPNAAAAAAAAAAAFNFPFAAQGPNPAYYMRW | not soluble
MAKTIFYFSYRKTEELHAKAKELKKITTDYGYELTDDYQKANVIISIGGDGAFLKSVRETGFRQDCLYAGIALTEQLGQYCDFHINQLDEIIKAAIEDRWLVRRYPTIYGTVNNTKAFYVLNEFNIRSSIIRTLTMDLYINDSHFETFRGDGMVISTPTGSTAYNKSVNGSIVDPLLPSMQVSELASINNNKFRTLGSSFILSPKRKLRIEIASEEGNNEFPMIGMDSEALSIQHVHEVNLEVGDRFINIIKLPKNSFWDKVKRNFLLEHHHHHH | soluble
MEDFKKIVNNIRLKDTFDFKLAAFPNQNYDQLLPSQIYKNYYQGIEIQQHKYQNELDIKIINFLYPDGDFGSANKNGTLKLSLMLTDKKNNQVYYKLLEVSGFKSNPYGVDLEHHHHHH | not soluble
MDREVEAQIGLNNVKILKSNILDSDEGKLFLKFGDEDLVIGELESLKAIQSTETILCPKPFGIIRRNGSYSLITSYIDFQLRKDWALAGSQLAKMHAKNGEQLAQNARRTRFVSVNSGMSDISKSEEGEQIGTENFGFHVTTCCGRLGQENDWTETWEEFFIRHRLKPQIDRLIETHNDRQLFELSEILYTKTAKLLKCRENVLPSLVHGDLWGGNWSMTTADGAPEPIIFDPSSSYSDPEFEFGIMKMFGGWTQDFENKYEKIIKTADGKNQRVLLYELYHNLNHWNHFGNSYRKKEKKLDKIYNNVYNNCYNNVRKNYCTKRITPKSGKLRNKAVRHPDFLANGIRRSPNLNFRSAIVICRSPFAAQPWYVAQLSKLEVMITDLIQM | not soluble
